Experimental findings from patent US20250262210A1 (TRUSTEES OF COLUMBIA UNIVERSITY IN THE CITY OF NEW YORK, published 2025) are described below.

For the experiment, the target named is T1, ZCCHC6 (human, UniProt Q5VYS8 1-1495, limits assumed).
T1 sequence (looked up): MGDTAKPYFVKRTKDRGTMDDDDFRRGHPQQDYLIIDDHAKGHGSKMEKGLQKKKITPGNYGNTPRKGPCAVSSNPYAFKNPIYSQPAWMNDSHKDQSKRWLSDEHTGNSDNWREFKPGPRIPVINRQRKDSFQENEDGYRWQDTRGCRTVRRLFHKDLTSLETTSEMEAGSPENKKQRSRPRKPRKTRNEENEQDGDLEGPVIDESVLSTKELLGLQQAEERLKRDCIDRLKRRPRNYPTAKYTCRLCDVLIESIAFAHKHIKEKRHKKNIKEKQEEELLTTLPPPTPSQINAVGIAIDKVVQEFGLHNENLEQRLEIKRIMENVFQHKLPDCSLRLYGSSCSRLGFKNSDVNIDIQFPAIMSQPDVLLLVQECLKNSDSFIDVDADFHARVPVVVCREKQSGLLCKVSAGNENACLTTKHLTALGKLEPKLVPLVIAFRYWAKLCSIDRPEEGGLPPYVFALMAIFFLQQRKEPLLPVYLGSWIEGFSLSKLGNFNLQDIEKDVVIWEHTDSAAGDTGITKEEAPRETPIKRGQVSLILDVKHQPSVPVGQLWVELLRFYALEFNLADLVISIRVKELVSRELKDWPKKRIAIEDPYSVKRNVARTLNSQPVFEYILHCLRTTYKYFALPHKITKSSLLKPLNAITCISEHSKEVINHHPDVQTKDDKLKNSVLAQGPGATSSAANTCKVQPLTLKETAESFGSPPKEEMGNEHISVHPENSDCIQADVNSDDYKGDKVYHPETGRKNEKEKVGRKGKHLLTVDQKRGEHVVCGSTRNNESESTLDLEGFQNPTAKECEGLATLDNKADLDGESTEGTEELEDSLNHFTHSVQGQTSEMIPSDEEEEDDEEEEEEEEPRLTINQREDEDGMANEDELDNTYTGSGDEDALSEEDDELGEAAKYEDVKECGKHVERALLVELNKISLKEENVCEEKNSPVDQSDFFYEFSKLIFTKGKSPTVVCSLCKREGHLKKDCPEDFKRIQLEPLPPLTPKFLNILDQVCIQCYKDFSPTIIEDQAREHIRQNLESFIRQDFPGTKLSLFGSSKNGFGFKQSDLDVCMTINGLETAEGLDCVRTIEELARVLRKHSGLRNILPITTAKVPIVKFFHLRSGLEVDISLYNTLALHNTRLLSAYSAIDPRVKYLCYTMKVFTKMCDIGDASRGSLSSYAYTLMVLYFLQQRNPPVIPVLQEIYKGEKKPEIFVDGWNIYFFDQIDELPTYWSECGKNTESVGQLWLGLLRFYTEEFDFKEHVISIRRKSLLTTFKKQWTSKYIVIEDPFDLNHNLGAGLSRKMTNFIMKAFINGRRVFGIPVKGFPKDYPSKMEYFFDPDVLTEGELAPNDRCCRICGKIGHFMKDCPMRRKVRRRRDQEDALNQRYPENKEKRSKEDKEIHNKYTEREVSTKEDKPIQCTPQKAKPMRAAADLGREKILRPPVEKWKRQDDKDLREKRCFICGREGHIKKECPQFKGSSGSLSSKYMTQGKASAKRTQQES
As to the kind of experiment: IP/MS, LZTR1 R810W-FLAG, U87. In short, it runs like this:
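Read-out: spectral counts from LC-MS/MS (Orbitrap Fusion) after MaxQuant identification. Variable modifications were Met oxidation, protein N-terminal acetylation and N/Q deamidation.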

B1: LZTR1 R810W-FLAG (other, human, UniProt Q8N653 1-840, looked up)
chain: MAGPGSTGGQIGAAALAGGARSKVAPSVDFDHSCSDSVEYLTLNFGPFETVHRWRRLPPCDEFVGARRSKHTVVAYKDAIYVFGGDNGKTMLNDLLRFDVKDCSWCRAFTTGTPPAPRYHHSAVVYGSSMFVFGGYTGDIYSNSNLKNKNDLFEYKFATGQWTEWKIEGRLPVARSAHGATVYSDKLWIFAGYDGNARLNDMWTIGLQDRELTCWEEVAQSGEIPPSCCNFPVAVCRDKMFVFSGQSGAKITNNLFQFEFKDKTWTRIPTEHLLRGSPPPPQRRYGHTMVAFDRHLYVFGGAADNTLPNELHCYDVDFQTWEVVQPSSDSEVGGAEVPERACASEEVPTLTYEERVGFKKSRDVFGLDFGTTSAKQPTQPASELPSGRLFHAAAVISDAMYIFGGTVDNNIRSGEMYRFQFSCYPKCTLHEDYGRLWESRQFCDVEFVLGEKEECVQGHVAIVTARSRWLRRKITQARERLAQKLEQEAAPVPREAPGVAAGGARPPLLHVAIREAEARPFEVLMQFLYTDKIKYPRKGHVEDVLLIMDVYKLALSFQLCRLEQLCRQYIEASVDLQNVLVVCESAARLQLSQLKEHCLNFVVKESHFNQVIMMKEFERLSSPLIVEIVRRKQQPPPRTPLDQPVDIGTSLIQDMKAYLEGAGAEFCDITLLLDGHPRPAHKAILAARSSYFEAMFRSFMPEDGQVNISIGEMVPSRQAFESMLRYIYYGEVNMPPEDSLYLFAAPYYYGFYNNRLQAYCKQNLEMNVTVQNVLQILEAADKTQALDMKRHCLHIIVHQFTKVSKLPTLWSLSQQLLLDIIDSLASHISDKQCAELGADI
notes: Stably expressed in U87 cells by lentivirus; also called LZTR1-FLAG-R810W; LZTR1 RW; not shown: FLAG tag
For the molecule B1, the binding result was “binds”.
